In the nanobody polyreactivity screen of Harvey et al. (2022):

Assay: yeast display, Sf9 membrane polyspecificity reagent, FACS + sequencing; frameworks hold sequencing errors
Procedure, shortened: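 A synthetic nanobody library was expressed on Saccharomyces cerevisiae BJ5465 by galactose induction for 36–48 hours. The library was stained for 1 hour at 4 °C with 10% biotinylated, detergent-solubilized Sf9 membrane reagent and enriched with streptavidin microbeads before FACS. Low and high (top ~1%) gates were set on anti-HA fluorescence for expression and streptavidin fluorescence for reagent binding, and each polyreactivity label reflects the gate of origin.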

Sequence	polyreactivity (PSR sort gate)
QVQLVESGGGLVQAGGSLRLSCAASGSTFTSNTRWYRPAPGKERELVAAISSSGRTYYADSVKGRFTISRDNAKNTVYLQMNSLKPEDTAVYYCAARGREFGYWGQGTQVTVSS	high polyreactivity
QVQLVESGGGLVQAGGSLRLSCAASGSTFTSYAMGWYRQAPGKERELVAAISRRGTSTYYADSVKGRFTISRDNAKNTVYLQMNSLKPEDTAVYYCAADGYYWEYYYWGQVTQVTVSS	high polyreactivity
QVQLVESGGGLVQAGGSLRLSCAASGSTFTTHVMGWYRQAPGKERELVAAISWSSGSTYYADSVKGRFTISRDNEKNTVYLQMNSLKPEDTAVYYCDARLVIFYPYSRYYFWGQGTQVTVSS	high polyreactivity
QVQLVESGGGLVQAGGSLRLSCAASGSTFTTNAMGWYIQAPGKERELVATISGGSTNYADSVKGRFTISRDNAKNTVYLQMNSLKPEDTAVYYCNTDGEVTYDYWGQGTQVTVSS	low polyreactivity
QVQLVESGGGLVQAGGSLRLSCAASGSTFTTNAMGWYSQAPGKERELVATISGGGSTYYADSVKGRFTISRDNAKNTVYLQMNSLKPEDTAVYYCATDVQVPGIGRSVYAYEYWGQGTQVTVSS	low polyreactivity
QVQLVESGGGLVQAGGSLRLSCAASGSTFTTYAMGWYRQAPGKERELVAAISRTGGVTYYADTVKGRFTISRDNGKKTVYLQMNSLKPDDTAVYYCNAGLFRGAQFDYWGLGTQVTVSS	high polyreactivity
QVQLVESGGGLVQAGGSLRLSCAASGSTFTVNCMGWYRQAPGKERELVASITWSGGSTYYADSVKGRFTISRDNAKNTVYFQMNSLKPEDTAVYYCAADEKLYITGYDYWGQGTQVTVSS	low polyreactivity
QVQLVESGGGLVQAGGSLRLSCAASGSTFTVNDMGWYRQAPGKERELVAAITQRDGRTFYADSVKGRFTISRDNAKNTVYLQMNSLKPEDTAVYYCAATFIQVVVNVQLYDYDYWGQGTQVTVSS	low polyreactivity
QVQLVESGGGLVQAGGSLRLSCAASGSTFTVNGMGWYRQAPGKERELVASITWSGGSTYYADSVKGRFTISRDNAKNTVYLQLNSLKPEDTAVYYCNAVDTRVPSIRFDYWGQRTQVTVSS	low polyreactivity
QVQLVESGGGLVQAGGSLRLSCAASGSTFTVNGMGWYRQATGKESELVAAIDGGDGSTYYADSVKGRFTISRDNAKNTVYLQMNSLKPEDTAVYYCAADPPGFTQYGYWGQGTQVTVSS	low polyreactivity
QVQLVESGGGLVQAGGSLRLSCAASGSTFTVYAMGWYRQAPGKERELVAAISSSTGSTYYADSVKGRFTISRDNAKNTVYLQMNSLKPEDTAVSYCAADVYHVTTSSYTEFEYWGQGTQVTVSS	low polyreactivity
QVQLVESGGGLVQAGGSLRLSCAASGSTFTVYAMGWYRQAPGKERELVAAISWSGGSTYYADSVKGRFTISRDNAKNTVYLQMNSLKPEDTAVYYCAVVIYWRTGEYDYWGQGTQVTVSS	low polyreactivity
QVQLVESGGGLVQAGGSLRLSCAASGSTFTVYAMGWYRQAPGKERELVAGISSGGSTYYADSVKGRFTISRDNAKNTVYLQMNSLKPEDTAVYYCAALRVRVPLGTYGYWGQVTQVTVSS	high polyreactivity
QVQLVESGGGLVQAGGSLRLSCAASGSTFTWYAMGWYRQAPGKEGELVAAISRGGSTNYADSVKGRFTISRDNAKNTVYLQMNSLKPEDTAVYYCAAESYWRDDYWGQGTQVTVSS	low polyreactivity
QVQLVESGGGLVQAGGSLRLSCAASGSTFTYNAMGWYRQAPGKERELVAAIRSNGGSTYYADSVKGRFTISRDNAKNTVYLQMNSLKPEDTAVYYCAARLSVLGGYRGRNAWRFDHWGLGTQVTVSS	high polyreactivity
QVQLVESGGGLVQAGGSLRLSCAASGSTFTYNTLVWYRQAPGKERELVAAISWGGGGTYYADSVKGRFTISRDNAKNTVYLQMNSLKPEDTAVYYCNADPWWDYGTFDYWGQGTQVTVSS	low polyreactivity
QVQLVESGGGLVQAGGSLRLSCAASGSTFTYYDMGWYRQAPGKERELVATIDSTTRTYYADSVKGRFTISRDNAKNTVYLQMNSLKPEDTAVYYCAADLTWAYFYYLFYRYDYWGQGTQVTVSS	low polyreactivity
QVQLVESGGGLVQAGGSLRLSCAASGSTFTYYTMAWYRQAPGKERELVAAISWSGGRTYYADSVKGRFTISRDNAKNTVYLQMNSLKPEDTAVYYCAAGPAPGHDSWGQGTQVTVSS	high polyreactivity
QVQLVESGGGLVQAGGSLRLSCAASGSTFVANAMGWYIQAPGKERELVAAISFNRGGNTYYADSVKGRFTISRDNAKNTVYLQMNSLKPEDTAVYYCAAAQRELPTVRRNYWGQGTQVTVSS	high polyreactivity
QVQLVESGGGLVQAGGSLRLSCAASGSTFVANAMGWYRQAPGKERELVAAISGAGGGTYYADSVKGRFTISRDNAKNTVYLQMNSLKPEDTAVYYCAAVPWYYYHYWVSHPYGGDYWGQGTQVTVSS	low polyreactivity
QVQLVESGGGLVQAGGSLRLSCAASGSTFVAYAKGWYRQAPGKETEWDASISGSGGTTNYADSVKGRFTISRDNAKNTVYLQMNSLKPEDTAVYYCARRYYSVKSRYALNSWGQGTQVTVSS	high polyreactivity
QVQLVESGGGLVQAGGSLRLSCAASGSTFVAYAMGWYRQAPGKERELVAAITYSGGRTYYADSVKGRFTISRDNAKNTVYLQMNSLKPEDTAVYSCAATGVFRDEYWGQGTQVTVSS	low polyreactivity

Sequence	polyreactivity (PSR sort gate)
QVQLVESGGGLVQAGGSLRLSCAASGSTFVDYAMGWYRPAPGKERELVAAINSDGGGTYYADSVKGRFTISRDNAKNTVYLQMNSLKPEDTAVYYCAAVGYTTYRRYDYWGQGTQVTVSS	low polyreactivity
QVQLVESGGGLVQAGGSLRLSCAASGSTFVFYAMGWYRQAPGKERELVAGISDSGGNTYYADSVKGRFTISRDNAKNTVYLQMNSLKPEDTAVYYCATRYPYYPFYVGIYELDYWGQGTQVTVSS	low polyreactivity
QVQLVESGGGLVQAGGSLRLSCAASGSTFVFYAMGWYRQAPRKERELVAAITIGGSTYADSVKGRFTISRDNAKNTVYLQMNSLNPEDTAVYYCNADDAPSSFTTLDFTFDYWGQGTQVTVSS	low polyreactivity
QVQLVESGGGLVQAGGSLRLSCAASGSTFVFYTMGWYRQAPGKEREFVASISGSGGSTYYADSVKGRFTISRDNAKNTVYLQMNSLKPEDTAVYYCGAGYPYYYWTPYYYWGQGTQVTVSS	high polyreactivity
QVQLVESGGGLVQAGGSLRLSCAASGSTFVGNAMGCYRQAPVKERELVATISNSGGHTFYADSVKGRFTISRDNAKNTVYLQMNSLKPEDTAVFYCAASTSGAIRRDGYWGQGTQVTVSS	low polyreactivity
QVQLVESGGGLVQAGGSLRLSCAASGSTFVGNAMGWYRQAPGKERELVAAISRTGGSTYYADSVKGRFTISRDNAKNTVYLQMNSLKPEDTAVYYCNAYTRYSSRRGIGDYWGQGTQVTVSS	high polyreactivity
QVQLVESGGGLVQAGGSLRLSCAASGSTFVGNAMGWYRQAPGKERELVAAITGGGGSTYYADSVKGRFTISRDNAKNTVYLQMNSLKPEDTAVYSCARDRTDYYVWYVRYYYWGQGTQVTVSS	low polyreactivity
QVQLVESGGGLVQAGGSLRLSCAASGSTFVGNAMGWYRQAPGKERELVAGITSSGTSTYYADSVKGRFTMSRDNAKNSVYLQMNRLKPEDTAVYYCATDDADESYGFELFDYWGLGTQVTVSS	low polyreactivity
QVQLVESGGGLVQAGGSLRLSCAASGSTFVHNGMGWYRQAPGIDRELVGAITDGGSTYYADSVKGRFTISRDNAKNTVYLQMNSLKPEDTAVYYCAAGYSRYGYFRGYRYYYWGQGTQVTVSS	low polyreactivity
QVQLVESGGGLVQAGGSLRLSCAASGSTFVHYAMGWYRQAPGKERELVAAITISGGRTYYADSVKGRFTISRDNAKNTVYLQMNSLKPEDTAVYYCNADHYHRTWGYDYWGQGTQVTVSS	low polyreactivity
QVQLVESGGGLVQAGGSLRLSCAASGSTFVINAMGWYRQAPGKERELVAAISFSGDTTYYADSVKGRFTISRDNAKNTVYLQMNSLKPEDTAVYYCAASVTVGISKYGYWGQGTQVTVSS	high polyreactivity
QVQLVESGGGLVQAGGSLRLSCAASGSTFVINAMGWYRQAPGKERELVAAISYSGDSTYADSVKGRFTISRDNEKNTVYLQMNSLKPEDTAVYYCAKYQYDYYTYDYWGQGTQVTVSS	low polyreactivity
QVQLVESGGGLVQAGGSLRLSCAASGSTFVINAMGWYRQAPGKERELVADIDYRGGSTNYADSVKGRFTISRDNAKNTVYLLMNSLKPEDTAVYYCNKRYVIRRRGYDYWGQGTQVTVSS	low polyreactivity
QVQLVESGGGLVQAGGSLRLSCAASGSTFVINDMGWYRQAPGKERELVAAITWGSGSTYYADSVKGRFTISRDNAKNTVYLQMNSLKPEDTAVYYCAADVYFGLVGYYAEYNDYWGQGTQVNVSS	low polyreactivity
QVQLVESGGGLVQAGGSLRLSCAASGSTFVIYAMGWYRQAPGKERELVAAIRLGGGSTYYADSVKGRFTISRDNANNTVYLQMNSLKPEDTAVYYCAAEVDQWYYRGYDYWGQGTQVTVSS	high polyreactivity
QVQLVESGGGLVQAGGSLRLSCAASGSTFVIYAMGWYRQAPGKERELVAAITISGGRTYYADSVKGRFTISRDNAKNTVYLQMNSLKPEDTAVYYCAATVVSTYPYGYGSTFVRDDYWGQGTQVTVSS	low polyreactivity
QVQLVESGGGLVQAGGSLRLSCAASGSTFVIYGMGLYRQEPGKESDIVADITWIGGSTYYADSVKGRFTISRDNAKNTVYLQMKSLKPEDTAVYYCAADAAYLYLYNWYDTEDYYWGQGTLVTVSS	low polyreactivity
QVQLVESGGGLVQAGGSLRLSCAASGSTFVIYGMGWYRQAPGTERELVADITWIGGSTYYADSVKGRFTISRDNAKNTVYLQMNSLKPEDTAVYYCNADVRYGRDHWGQGTQVTVSS	low polyreactivity
QVQLVESGGGLVQAGGSLRLSCAASGSTFVIYTMGWCRQAPGKERELVAAISWSGGITRYADSVKGRFTISRDNAKNTVYLQMNSLKPEDTAVYYCNASQWPSLFDYWGQGTQVTVSS	low polyreactivity
QVQLVESGGGLVQAGGSLRLSCAASGSTFVNYVMGWYRQAPGKERELVAAISRRGTSTRYADSVKGRFTISRDNAKNTVYLQMNSLKPEDTAVYYCAATRYVGVTGYGYWGQGTQVTVSS	high polyreactivity
QVQLVESGGGLVQAGGSLRLSCAASGSTFVPNAMGWYRQAPGKERELVAAISRSAGSTYYADSVKGRFTISRDNAKNTVYLQMNSLKPEDTAVYYCAAVSLTYIAYDYWGQGTQVTVSS	high polyreactivity
